Source: patent publication US20220235143A1 (Memorial Sloan Kettering, published 2022)
Where no end group is shown, it is not given here.

T1: MUC16 peptide-2 glycopeptide (human, also: glycopeptide, glycan and its site not given here)
T1 peptide: TLDRSSVLVDGYSPNRNE

T2: biotinylated MUC16 peptide-2 (human, also: biotinylated (position not given here))
T2 construct: Captured on streptavidin sensor (SPR) or streptavidin magnetic beads (radioligand assays); also called biotinylated peptide-2
T2 peptide: TLDRSSVLVDGYSPNRNE

T3: MUC16 c114 expressed on transfected SKOV3 cells (SKOV3^c114) (human)
T3 construct: also called deltaMUC16c114; c114 peptide
T3 chain: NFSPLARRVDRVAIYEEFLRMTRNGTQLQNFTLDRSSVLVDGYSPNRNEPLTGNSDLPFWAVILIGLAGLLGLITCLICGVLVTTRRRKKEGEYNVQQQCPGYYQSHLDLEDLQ


How the values were obtained:
[1] = biological target: T1, MUC16 peptide-2 glycopeptide; assay: SPR, BIAcore X100, peptide-2 glycopeptide over antibody captured by anti-IgG
Procedure: Ligand capture was performed by flowing the humanized anti-Muc16 antibodies 18C6 H1L1, 18C6 H1L2, 18C6 H2L1, 18C6 H2L2) and the parental 18C6 mouse antibody onto the respective chips under saturating conditions. The MUC16 peptide-2 was then flowed over at the various test concentrations (150 nM, 75 nM, 37.5 nM, 18.8 nM, and 9.4 nM). The assay conditions used for measuring the effects of the glycopeptide were as follows: association time of 2 minutes, disassociation time of 10 min, and a flow rate of 30 μl per minute.

[2] = biological target: T2, biotinylated MUC16 peptide-2; assay: SPR, BIAcore X100, single cycle kinetics, antibody over captured biotinylated peptide-2
Procedure: The relative binding affinities of 4H11 humanized antibodies (H1L1, H1L2, H2L1, H2L2) were compared by surface plasmon resonance using a BIACore-X100 instrument with a Biotin CAP Chip (GE Healthcare). The assay format consisted of capturing the biotinylated MUC16 peptide-2 ([…]; SEQ ID NO: 52) onto a streptavidin coated sensor and flowing over the antibody at various concentrations using single cycle kinetics. Ligand capture was performed by flowing 0.5 μg/ml of biotinylated MUC16 peptide-2 at a rate of 5 μl per minute for 65 seconds. The 4H11 humanized antibodies were then flowed over at the various test concentrations (150 nM, 75 nM, 37.5 nM, 18.8 nM, and 9.4 nM). The assay conditions used for measuring the effects of the added antibodies were as follows: association time of 2 minutes, disassociation time of 10 min, and a flow rate of 30 μl per minute.

[3] = biological target: T3, MUC16 c114 expressed on transfected …; assay: FACS, geometric mean PE fluorescence, SKOV3 c114 transfectant cells, mouse anti-human IgG1-Fc-PE detection; same antibody on vector control SKOV3 phrGFP about 200, secondary alone about 170
Procedure: (§1) In a separate experiment, full-length humanized 4H11 antibodies (IgG1-Fc) comprising different combinations of humanized heavy and light chain variable regions of the 4H11 antibody were assayed. An anti-human IgG1-Fc-PE antibody was employed for fluorescent staining of MUC16-positive OVCAR3 or SKOV3 transfectant cells expressing MUC16 peptides. FIGS. 10A and 10B provide data for mean PE fluorescence and percentage PE positive cells for the 4H11 H1L1, H1L2, H2L1 and H2L2 antibodies assayed.

[4] = biological target: T3, MUC16 c114 expressed on transfected …; assay: FACS, geometric mean PE fluorescence, SKOV3 c114 transfectant cells, mouse anti-human IgG1-Fc-PE detection; same antibody on vector control SKOV3 phrGFP about 170, at the level of secondary alone (about 170)
Procedure: as §1

[5] = biological target: T3, MUC16 c114 expressed on transfected …; assay: flow cytometry, PE-Texas Red axis 10^0 to 10^5, secondary antibody detection; untransfected SKOV3 Cells + DFO-hu4H11 + Sec Ab lie with their controls below about 5 x 10^2

Binder | Kd [1] | koff [1] | kon [1] | Kd [2] | koff [2] | kon [2] | further results
18C6 H1L1 humanized antibody (antibody, human IgG1, kappa, V domains shown, also called H1L1 humanized 18C6 antibody) VH: QVTLKESGPGILQPTQTLTLTCTFSGFSLSTVGMGVGWSRQPSGKGLEWLAHIWWDDEDKYYNPALKSRLTITKDTSKNQVFLKITNVDTADTATYYCTRIGTAQATDALDYWGQGTLVTVSS VL: DIVMTQSAPSVPVTPGESVSISCRSSKSLLHSNGNTYLYWFLQKPGQSPQRLIYYMSNLASGVPDRFSGRGSGTDFTLKISRVEAEDVGVYYCMQSLEYPLTFGGGTKLEIKR | 6.7 nM | 0.0019 s⁻¹ | 287000 M⁻¹ s⁻¹ | – | – | – | –
18C6 H1L2 humanized antibody (antibody, human IgG1, kappa, V domains shown) VH: QVTLKESGPGILQPTQTLTLTCTFSGFSLSTVGMGVGWSRQPSGKGLEWLAHIWWDDEDKYYNPALKSRLTITKDTSKNQVFLKITNVDTADTATYYCTRIGTAQATDALDYWGQGTLVTVSS VL: DIVMTQSALSLPVTPGEPVSISCRSSKSLLHSNGNTYLYWFLQKPGQSPQRLIYYMSNLASGVPDRFSGSGSGTDFTLKISRVEAEDVGVYYCMQSLEYPLTFGGGTKLEIKR | 8.7 nM | 0.0025 s⁻¹ | 287000 M⁻¹ s⁻¹ | – | – | – | –
4H11-H1L1 hIgG (antibody, also called humanized 4H11 H1L1) heavy: not shown light: DIELTQSPSSLAVSAGERVTMNCKSSQSLLNSRTRKNQLAWYQQKPGQSPELLIYWASTRQSGVPDRFSGSGSGTDFTLTISSVQAEDVAVYYCQQSYNLLTFGPGTKLEIKRTVAAPSVFIFPPSDEQLKSGTASVVCLLNNFYPREAKVQWKVDNALQSGNSQESVTEQDSKDSTYSLSSTLTLSKADYEKHKVYACEVTHQGLSSPVTKSFNRGEC | – | – | – | 1.57 nM | 0.000146 s⁻¹ | 92700 M⁻¹ s⁻¹ | –
4H11-H1L2 hIgG (antibody, also called H1L2 humanized 4H11 antibody) heavy: not shown light: DIVLTQSPDSLAVSLGERVTMNCKSSQSLLNSRTRKNQLAWYQQKPGQSPELLIYWASTRQSGVPDRFSGSGSGTDFTLTISSVQAEDVAVYYCQQSYNLLTFGQGTKLEIKRTVAAPSVFIFPPSDEQLKSGTASVVCLLNNFYPREAKVQWKVDNALQSGNSQESVTEQDSKDSTYSLSSTLTLSKADYEKHKVYACEVTHQGLSSPVTKSFNRGEC | – | – | – | 2.19 nM | 0.000198 s⁻¹ | 90400 M⁻¹ s⁻¹ | –
4H11-H2L1 hIgG (antibody) heavy: not shown light: DIELTQSPSSLAVSAGERVTMNCKSSQSLLNSRTRKNQLAWYQQKPGQSPELLIYWASTRQSGVPDRFSGSGSGTDFTLTISSVQAEDVAVYYCQQSYNLLTFGPGTKLEIKRTVAAPSVFIFPPSDEQLKSGTASVVCLLNNFYPREAKVQWKVDNALQSGNSQESVTEQDSKDSTYSLSSTLTLSKADYEKHKVYACEVTHQGLSSPVTKSFNRGEC | – | – | – | 1.33 nM | 0.000101 s⁻¹ | 76100 M⁻¹ s⁻¹ | binding result [3]: binds
4H11-H2L2 hIgG (antibody) heavy: not shown light: DIVLTQSPDSLAVSLGERVTMNCKSSQSLLNSRTRKNQLAWYQQKPGQSPELLIYWASTRQSGVPDRFSGSGSGTDFTLTISSVQAEDVAVYYCQQSYNLLTFGQGTKLEIKRTVAAPSVFIFPPSDEQLKSGTASVVCLLNNFYPREAKVQWKVDNALQSGNSQESVTEQDSKDSTYSLSSTLTLSKADYEKHKVYACEVTHQGLSSPVTKSFNRGEC | – | – | – | 2.37 nM | 0.000175 s⁻¹ | 73800 M⁻¹ s⁻¹ | binding result [4]: binds
humanized variant of 4H11 (hu4H11), DFO immunoconjugate (antibody, V domains shown, p-SCN-Bn-DFO on lysine epsilon-amines, ~1 DFO conjugated per antibody; 89Zr-labelled where named [^89Zr]Zr-DFO-hu4H11, both entries are variable regions (H1 and L1); Full-length antibody; also called DFO-hu4H11; [^89Zr]Zr-DFO-hu4H11) VH: EVKLQESGGGFVKPGGSLRVSCAASGFTFSSYAMSWVRLAPEMRLEWVATISSAGGYIFYSDSVQGRFTISRDNAKNSLHLQMGSLRSGDTAMYYCARQGFGNYGDYYAMDYWGQGTTVTVSS VL: DIELTQSPSSLAVSAGERVTMNCKSSQSLLNSRTRKNQLAWYQQKPGQSPELLIYWASTRQSGVPDRFSGSGSGTDFTLTISSVQAEDVAVYYCQQSYNLLTFGPGTKLEIKR | – | – | – | – | – | – | binding result [5]: binds

Second part, led by results:

Kd [1] | koff [1] | kon [1] | Kd [2] | koff [2] | kon [2] | Binder | further results
9.2 nM | 0.004 s⁻¹ | 433000 M⁻¹ s⁻¹ | – | – | – | 18C6 H2L2 humanized antibody (antibody, human IgG1, kappa, V domains shown) VH: QVTLKESGPTLVKPTQTLTLTCTFSGFSLSTVGMGVGWSRQPSGKGLEWLAHIWWDDEDKYYNPALKSRLTITKDTSKNQVVLTITNVDPVDTATYYCTRIGTAQATDALDYWGQGTLVTVSS VL: DIVMTQSALSLPVTPGEPVSISCRSSKSLLHSNGNTYLYWFLQKPGQSPQRLIYYMSNLASGVPDRFSGSGSGTDFTLKISRVEAEDVGVYYCMQSLEYPLTFGGGTKLEIKR | –
9.9 nM | 0.0054 s⁻¹ | 549000 M⁻¹ s⁻¹ | – | – | – | 18C6 H2L1 humanized antibody (antibody, human IgG1, kappa, V domains shown) VH: QVTLKESGPTLVKPTQTLTLTCTFSGFSLSTVGMGVGWSRQPSGKGLEWLAHIWWDDEDKYYNPALKSRLTITKDTSKNQVVLTITNVDPVDTATYYCTRIGTAQATDALDYWGQGTLVTVSS VL: DIVMTQSAPSVPVTPGESVSISCRSSKSLLHSNGNTYLYWFLQKPGQSPQRLIYYMSNLASGVPDRFSGRGSGTDFTLKISRVEAEDVGVYYCMQSLEYPLTFGGGTKLEIKR | –
